Assay results: the nanobody polyreactivity screen of Harvey et al. (2022)

Assay: yeast display, Sf9 membrane polyspecificity reagent, FACS + sequencing; frameworks hold sequencing errors
Procedure, shortened: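 Nanobodies from a synthetic yeast display library (Saccharomyces cerevisiae BJ5465), induced 36–48 hours with galactose, were stained 1 hour at 4 °C with 10% biotinylated, detergent-solubilized Sf9 membrane reagent, enriched on streptavidin microbeads, then FACS-sorted. Anti-HA (expression) and streptavidin (reagent binding) fluorescence set low and high (top ~1%) gates. Polyreactivity labels come from the gate of origin. Genes were colony-PCR amplified, MiSeq 2 × 250 sequenced and filtered by CDR length.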

Row | Sequence | polyreactivity (PSR sort gate)
1 | QVQLVESGGGLVQAGGSLRLSCAASGLIFYPYAMGWYRQAPGKERELVAGISSSGDSTYYADSVKGRFTISRDNAKNTVYLQMNSLKPDDTAVYYCNTGWDPYGYDYWGQGTQVTVSS | low polyreactivity
2 | QVQLEESGGGLVQAGGSLRLSCAASGSTFQLYAMGWYRPAPGKERELVAGISRDGSTYYADSVKGRFTISRDNAKNTVFLQMNSLKPEDTAVYYCAAKYYGNKRDLYYWGQGTQVTVSS | low polyreactivity
3 | QVQLVESGGGLVQAGGSLRLSCAASGFTFYSYAMGWYRQAPGKEREFVAAISGSGTITFYADSVKGRFTISRDNAKNTVYLQMNSLKPEDTAVYYCNADKYYRWSSPRYDYWGQGTQVTVSS | low polyreactivity
4 | QVQLVESGGGLVQAGGSLRLSCAASGGIFWYYAMGWYRQAPGKERELVAAINSGGSTYYADSVKGRFTISRDNAKNTVYLQMNSLNPEDTAVYYCNTRYPFSRYDYWGQGTQVTVSS | low polyreactivity
5 | QVQLVESGGGLVQAGGSLRLSCAASGSIFRRYAMGWYRQPPGKERELVASISSRGTRTYYADSVKGRFTISRDNAKNTVYLQMNSLKPEDTAVYYCAASYYTPYDYWGQGTQVTVSS | high polyreactivity
6 | QVHLVESGGGLVQAGGSLRLSCAASGFTFVYYTMGWYRQAPGKERELVAAITYGGNTYYADSVKGRFTISRDNAKNTVYLQMNSLKPEDTAVYYCAARYISSYDWGQGTEVTVSS | high polyreactivity
7 | QVQLVESGGRLVQAGGSLRLSCAASGLIFADYTMGWYRQAPGKERELVAVITDGDSTYYADSVKGRFTISRDNAKNTVYLQMNSLKPEDTAVYYCAARSAILKSGYLMDYWGQGTQVTVSS | low polyreactivity
8 | QVQLVESGGGLVQAGGSLRLSCAASGMIFSDYSMGWYRQATGKERELVATITRSVRTSYADSVKGRFTISSDNAKNTVYLQMNSLKPEDTAVYYCNADVVGAVIAFDYWGQGTQVTVSS | low polyreactivity
9 | QVQLVESGGGLVQAGGSLRLSCAASGRTFDYKAMGWYRQAPGKERELVAAIDVNGGDTYYADSVKGRFTISRDNAKNTVYLQMNSLKPEDTAVYYCAAERDARTDDYWGQGTQVTVSS | low polyreactivity
10 | QVQLVESGGGLVQAGGSLRLSCAASGFTFFAYPMGWYRQAPGKERELVAGISRSGGRTYYADSVKGRFTISRDNAKNTVYLQMNSLKPEDTAVYYCNAVVRRSYLLEYDFCGQGTQVTVSS | high polyreactivity
11 | QVQLVESGGALVQAGGSLRLSCAASGSTIYQNAMGWYRQAPGKERELVAVISSGGSTYYADSVKGRFTISRDNAKNTVYLQMNSLKAEDTAVYYCAADRGTVSYLYSPRAVDYWGQGTQVTVSS | low polyreactivity
12 | QVQLVESGGGLVQAGGSLRLSSAASGRIFYSNAMGWYRQAPGKERELVAAITRSGGGTYYADSVKGRFTISSDNAKNTVYLLMNSLKPEDTAVYYCAAIYNWWGLGSLYYGSNYWGQGTQVTVSS | high polyreactivity
13 | QVQLVESGAGLVQAGGSLRLSCAASGFAFYLYAMGWYRQAPGIERELVAAISSRGGNTYYADTVKGRFTISRDYAKNTVYLPMISLKPEDNAVYYCAAEFWNWYGDYDYWGQGTQVTVSS | high polyreactivity
14 | QVQLVESGGGLVQAGGSLRLSCAASGRTFYTYAMGLYRQAPGNERELVATITSGGSTYYADSVKGRFTISRDNAKNTVYLQMNSLKPEDTAVYYCARRRRESRQDGDYWVQGTQVTVSS | high polyreactivity
15 | QVQLVESRGVLVQAGGSLRLSCAASGSIFYFYAMGWYRQAPGKERELVAAISWSGGSTYYADSVKGRFTISRDTSKNTVYLQMHSLKPEDTPVYYCNAADYWYWENDYWGQGTQVTVSS | low polyreactivity
16 | QVQLVESGGGLVKAGGSLRLSCAASGSTFEYDMGWYRPAPGKERELVAAITWTDGGTYYADSVNGRCTISRDNAKNTVYFQMNSLKPEDTAVYYCNAEGWFADFDSGFYAFDYWGQGTQVTVSS | low polyreactivity
17 | QVQLVESGGGLVQAGGSLRLSCAASGGIFRWYAMGWYRQAPGKEREFVAVITTDGGSTYYADSVKGRFTISRDNAKNTVYLQMNSLKPEDTAVYYCAADYTLIYDYWGQGTQVTVSS | low polyreactivity
18 | QVQLVESGGGLFQAGGSLRLSCAASGFTFAFNAMGWYRQAPGKERELVAGITSGGRTNYADSVKGRFTISRDNGKNTVYLQMNSLKPEDTAVYYCAADRPYYKGYVPPYYKYRYDYWGQGTQVTVSS | high polyreactivity
19 | QVQLVESGGGLVQAGGSLRLSCAASGNTFGFNTMGWYRQAPGKERELVAAISKSGTRTFYADSVKGRFTISRDNAKNTVYLQMNSLKPEDTAVYYCAAVAKGGNWPAQGGGHDYWGQGTQVTVSS | high polyreactivity
20 | QVQLVESGGGLVQAGGSLRLSCAASGRIFTYNAMGWYRQAPGKERELVAAISYSGGRTDYADSVKGRFTISRDNAKNTVYLQMHSLKPEDTAVYYCAARPGPYWTVTFRSPKYYYWGQGTQVTVSS | high polyreactivity
21 | QVQLVESGGGLVQAGGSLRLSCAASGFIFYYNAMGWYRQAPGKERELVAAISTDGGSTYYADSVKGRFTISRDNAKNTVYLQMNSLKPEDTAVYYCAANRYKRYDYWGQGTQVTVSS | low polyreactivity
22 | QVQLVESGGGLVQAGGSLRLSCAASGRIFFRYAMGWYIQAPGKEREFVAAISGSAGSTYYADSVKGRFKISRDNAKNTVYLQMNSLKPEDTAVYYCAARKAKVSNGLKYDYWGQGTQVTVSS | low polyreactivity

Row | Sequence | polyreactivity (PSR sort gate)
23 | QVQLVESGGGLVQAGGSLRLSCAASGRIFFYNVMGWYRQAPGKERELVAAITTIGGSTYYADSVKGRFTISRDNAKNTVYLQMNTLKPEDTAVYYCAAGWVTNSDGMDYWGQGTQVTVSS | low polyreactivity
24 | QVQLVESGGGLVQAGGSLRLSCAASGIIVDFYAMGWYRQAPGKERELVAGISWGGGTTYYADSVKGRFTISRDNAKNTVYLQMNSLKPEDTAVYYCAAVAFQTRYYYWGQGTQVTVSS | high polyreactivity
25 | QVQLVESGGGLVQAGGSLRLSCAASGSTFVTNAMVWYRQAPGKERELVAAIDYDSGSTYYADSVKGRFTISRDNAKNTVYLQMNSLIPEDTAVYYCNADEQSEEEWEYYYSYDYWGQGTQVTVSS | high polyreactivity
26 | QVQLVESGGGLVQAGGSLRLSCAASGRTFLIYAMGWYRQAPGKERELVAAITSGGRTKYADSVKGRFTISRDNAKYTVYLQMNSLKPEDTAVYYCAARTGVYRYSRKFDYWGQGTQVTVSS | high polyreactivity
27 | QVQLVESGGGLVQAGGSLRLSCAASGSTFATYAMGWYRQAPGKERELVAAITSGGSTYYADSVKGRFTISRDNAKNTVYLQMNSLKPEDTAVYYCAARSYGWRRATYYKREEYWGQGTQVTVSS | high polyreactivity
28 | QVQLVESGGGLVQAGGILRLTCAASGRTFYKNAMGWYRQAPGKERELVAAIDWIDGNTYYADSVKGRFTISRDNAKNTVYLQMNSLKPEDTAVYYCAAEGYDLGDYWGQGTQVTVSS | low polyreactivity
29 | QVQLVESGGGLVQAGGSLRLSCAASGRLFSYNAMGWYSQAPGKERELVAGITYGSTYYADSVKGRFRISRDNAKNTVYLQMNSLKPEDTAVYYSAADQSYTSVHGYRSDTLMDYWGQGTQGTVSS | low polyreactivity
30 | QVQLVESGGGLVQAGGSLRLSCAAYGSTFYANAMGWYRQAPGKERELVAAISSGGSTYYADSVKGRFTISRYNAKNTVYLQMNSLKPEDTAVYYCAKPFYSYRYGFGYWGQGTQVTVSS | low polyreactivity
31 | QVQLVESGGGLVQAGGSLRLRCAASGLTFVYYAMGWYRQAPVKERELVAAITSGGSTYYADSVKGRFTISRDNAKNTVYLQMNSLKPEDTAVYYCAATYPGFYFLLDEYWGQGTQVTVSS | high polyreactivity
32 | QVQLVESGGGLVQAGGSLRLSCAASGSIFYWYAMGWYRQAPGKERELVAAITSSSGRTRYADSVKGRFTISRDNAKNTVYLQMNSLKPEDTAVYYCAAGRWGSYYTPRPYGYWGQGTQVTVSS | high polyreactivity
33 | QVQLVESGGGLVQAGGSLRLSCAASGSIFTFYAMGWYRQAPVKERELVAGIRWRGGTSTFYADSVKGRFTISRDNAKNTVYLQMNSLKPEDTAVYYCAAKRRTGGNGYWGQGTQVTVSS | high polyreactivity
34 | QVQLVESGGVLVQAGGSLRLTCAASGFTFSRNTMGWYRQAPGKERELVAAIDSTGGSTYYADSVKGRFTISRDNAKNTVYLQMNSLKPEDTAVYYCATVLPDGRVWYEGYYWGQGTQVTVSS | low polyreactivity
35 | QVQLVESGGGLVQAGGSLRLSCAASRITFIYYAMGSYRQAPGKERELVAAINRSGGSTYYADSVKGRFTISRDIAKNTVYLQMNSLKPEDTAVYYCNADRSYWYIHSEYEYWGQGTQVTVSS | high polyreactivity
36 | QVQLVESGGGLVQAGGSLRLSCAASGIIFGTYAMGWYRQAPGKERELVAVITSGAGRTYYADSVKGRFTISRDNAKNTVYLQMNSLKPEDTAVDYCAARVWYPRYDYWGQGTQVTVSS | high polyreactivity
37 | QVQLVESGVGLVQAGGSLRLSCAASGFIIYGYVMGWYRQAPGKERELVAAINSSSGRTYYADSVKGRFTISRDNAKNTVYLQMNSLKPEDTAVYYCAAYYYGSYDGTPYDYWGQGTQVTVSS | low polyreactivity
38 | QVQLVESGGGLVQAGGSLRLRCAASGSTFYGYVMGWYRQAPGQERELVAAITNRAGSTYYADSVKARFTISRDNAKNTVYVQMNSLKPEDTAVYYCNARRPAKSRYRHVYWGQVTQVTVSS | high polyreactivity
39 | QVQLVESGGGLVQAGGSLRLICAASGSIIGVNAMGWYRQAPGKERELVAAITSTGGSTYYADSVKGRFTISRDNAKNTVYLKMNSLKPEDTAVYYCNTHYSKSIGEGYAGFDYWGQGTQVTVSS | low polyreactivity
40 | QVQLVESGGGLVQAGGSLRLSCAASGFTFGHYAMGWYRQAPGKQRELVAAISYSGVRTYYADSVKGRFTISRDNAKNTVYLQMNSLKPEDTAVYYCNKYPAHYQTRRYDYWGQGTQVTVSS | high polyreactivity
41 | QVQLVESGGGLVEAGGSLRLSCAASGLTFIVKAIGWYRQAPGKEREFVAAIRSGDGNTHYADSLKGRYTISRDNAKNTVYFQMNSLKPVDTAVYYCNAGFPRSYRFDYWGQGTQVTVSS | high polyreactivity
42 | QVQLVESGGGLVQAGGSLRLSCAASGSIFLKNVMGWYRQAPGKERELVAAITARGGATYYADSVKGRFTISRDNAKKTVYLQLNSQKPEDTAVYYCAARARVVPSLGNPRMDYWGQGTQVTVSS | high polyreactivity
43 | QVQLVESGGGLVQAGGSLRLSCAASGSIFDRNAMGWYRQAPGKERELVAAISRSSGNTYYADSVKGRFTISRDNAKNTVYLQMNSLKPEDTAVYYCAAKPTYPKRYNYWGQGTQVTVSS | high polyreactivity
